The results in this text go back to paper PMC13276077.

Common to all, as to test: EMSA
A general note: In EMSA bound probe runs differently from free probe, usually more slowly.

For series [1], the target named is MeCP2 full-length, e2 isoform (Homo sapiens) (UniProt P51608). To be noted: EMSA: 20 mM HEPES pH 7.5, 75 mM NaCl, 125 mM KCl, 50 uM EDTA, 2.5 mM beta-mercaptoethanol, 5% glycerol, BSA, 1.58 uM 47 bp competitor DNA (absent in free DNA …).
A further series deals with MeCP2 MBD (Homo sapiens) (UniProt P51608). Particulars: EMSA: 20 mM HEPES pH 7.5, 75 mM NaCl, 125 mM KCl, 50 uM EDTA, 2.5 mM beta-mercaptoethanol, 5% glycerol, BSA, 1.58 uM 47 bp competitor DNA (absent in free DNA …).
Series [2] deals with MeCP2 R133G R133G (Homo sapiens) (UniProt P51608). Particulars: apparent, competitor DNA, EMSA: 20 mM HEPES pH 7.5, 75 mM NaCl, 125 mM KCl, 50 uM EDTA, 2.5 mM beta-mercaptoethanol, 5% glycerol, BSA, 1.58 uM 47 bp competitor DNA (absent in free DNA …).
The mark [3] stands for this setting: apparent, no competitor DNA, meCpG at -1.

For the sequence “GAGCCACAAAACCGGCGACGCTCACGGGTGCCCAGTTCGCGCGCCCACCTACCGTGTGAAGTCGTCACTCGGGCTTCTAAGTACGCTTAGCGCACGGTAGAGCGCAATCCAAGGCTAACCACCGTGCATCGATGTTGAAAGAGGCCCTCCGTCCTTATTACTTCAAGTCCCTGGGGTACCCGTTTCACTGCCA (double strand) [16-N603-30 +91 CG nucleosome 91 meCpG]”, in series [1] (meCpG at 91), the Kd is 71.3 nM. Consider “CAGGATGTATATATCTGACACGTGCCTGGAGACTAGGGAGTAATCCCCTTGGCGGTTAAAACGCGGGGGACAGCGCGTACGTGCGTTTAAGCGGTGCTAGAGCTGTCTACGACCAATTGAGCGGCCTCGGCACCGGGATTCTCCA (double strand) [N601 nucleosome core particle -1 meCpG]”, for which the Kd in series [1] (setting [3]) is 44.2 nM; with MeCP2 MBD (Homo sapiens) (setting [3]), 50.7 nM. The sequence “CGGTACCTCGCGAATGCATCTAATGGAACACATTGCACAGGATGTATATATCTGACACGTGCCTGGAGACTAGGGAGTAATCCCCTTGGCGGTTAAAACGCGGGGGACAGAACGCCGGTGCGTTTAAGCGGTGCTAGAGCTGTCTACGACCAATTGAGCGGCCTGCGCACAGGGATTCTCCAGGGCGGCCGCGTATTGGATCCCGAGCC (double strand) [37-N601(mod)-27 nucleosome -6 meCpG]” had a Kd in series [1] (meCpG at -6) of 57.4 nM. In series [1] (meCpG at -36), “CGGTACCTCGCGAATGCATCTAATGGAACACATTGCACAGGATGTATCCGGCTGACACGTGCCTGGAGACTAGGGAGTAATCCCCTTGGCGGTTAAAACGCGGGGGACAGAGCGTACGTGCGTTTAAGCGGTGCTAGAGCTGTCGCGCCCCAATTGAGCGGCCTCGGCACAGGGATTCTCCAGGGCGGCCGCGTATTGGATCCCGAGCC (double strand) [37-N601(mod2)-27 nucleosome -36 meCpG]” had a Kd of 70.8 nM. “CGGTACCTCGCGAATGCATCTAATGGAACACATTGCACAGGATGTATCCGGCTGACACGTGCCTGGAGACTAGGGAGTAATCCCCTTGGCGGTTAAAACGCGGGGGACAGAGCGTACGTGCGTTTAAGCGGTGCTAGAGCTGTCGCGCCCCAATTGAGCGGCCTCGGCACAGGGATTCTCCAGGGCGGCCGCGTATTGGATCCCGAGCC (double strand) [37-N601(mod2)-27 nucleosome unmethylated]” registered a Kd in series [1] of 91.9 nM. Regarding “CGGTACCTCGCGAATGCATCTAATGGAACACATTGCACAGGATGTATATATCTGACACGTGCCTGGAGACTAGGGAGTAATCCCCTTGGCGGTTAAAACGCGGGGGACAGAACGCCGGTGCGTTTAAGCGGTGCTAGAGCTGTCTACGACCAATTGAGCGGCCTGCGCACAGGGATTCTCCAGGGCGGCCGCGTATTGGATCCCGAGCC (double strand) [37-N601(mod)-27 nucleosome -56 meCpG]”, the Kd in series [1] (meCpG at -56) worked out at 55.8 nM. “GAGCCACAAAATCACCGACGCCCGGGGGTGCCCAGTTCGCGCGCCCACCTACCGTGTGAAGTCGTCACTCGGGCTTCTAAGTACGCTTAGCGCACGGTAGAGCGCAATCCAAGGCTAACCACCGTGCATCGATGTTGAAAGAGGCCCTCCGTCCTTATTACTTCAAGTCCCTGGGGTACCCGTTTCACTGCCA (double strand) [16-N603-30 +81 CG nucleosome 81 meCpG]” yielded a Kd in series [1] (meCpG at 81) of 65.5 nM. Consider “CGGTACCTCGCGAATGCATCTAATGGAACACATTGCACAGGATGTATCCGGCTGACACGTGCCTGGAGACTAGGGAGTAATCCCCTTGGCGGTTAAAACGCGGGGGACAGAGCGTACGTGCGTTTAAGCGGTGCTAGAGCTGTCGCGCCCCAATTGAGCGGCCTCGGCACAGGGATTCTCCAGGGCGGCCGCGTATTGGATCCCGAGCC (double strand) [37-N601(mod2)-27 nucleosome +61 meCpG]”, for which the Kd in series [1] (meCpG at +61) came out at 62 nM. Regarding “ATGGAACACATTGCACAGGATGTATATATCTGACACGTGCCTGGAGACTAGGGAGTAATCCCCTTGGCGGTTAAAACGCGGGGGACAGCGCGTACGTGCGTTTAAGCGGTGCTAGAGCTGTCTACGACCAATTGAGCGGCCTCGGCACCGGGATTCTCCAGGGCGGCCGCGTATT (double strand) [15-N601-15 nucleosome -61 meCpG]”, the Kd in series [1] (meCpG at -61 (GGCACCGGGATT)) is 137 nM; in series [2] (meCpG at -61 (GGCACCGGGATT)), 534 nM; with MeCP2 MBD (Homo sapiens) (meCpG at -61 (GGCACCGGGATT)), 809 nM. Take “GAGCCACAAAATCACCGACGCTCACGGGTGCCCAGTTCGCGCGCCCACCTACCGTGTGAAGTCGTCACTCGGGCTTCTAAGTACGCTTAGCGCACGGTAGAGCGCAATCCAAGGCTAACCACCGTGCATCGATGTTGAAAGAGGCCCTCCGTCCTTATTACTTCAAGTCCCTGGGGTACCCGTTTCACTGCCA (double strand) [16-N603-30 nucleosome 81 meCpA]”: the Kd in series [1] (asymmetric meCpA at 81) turned out to be 65.3 nM; in the series with MeCP2 MBD (Homo sapiens) (asymmetric meCpA at 81), 268 nM. In the case of “ATGGAACACATTGCACAGGATGTATATATCTGACACGTGCCTGGAGACTAGGGAGTAATCCCCTTGGCGGTTAAAACGCGGGGGACAGCGCGTACGTGCGTTTAAGCGGTGCTAGAGCTGTCTACGACCAATTGAGCGGCCTCGGCACCGGGATTCTCCAGGGCGGCCGCGTATT (double strand) [15-N601-15 nucleosome -1 meCpG]”, the Kd in series [1] (meCpG at -1) came out at 130 nM; in series [2] (meCpG at -1), 522 nM; with MeCP2 MBD (Homo sapiens) (meCpG at -1), 812 nM. Regarding “ATGGAACACATTGCACAGGATGTATATATCTGACACGTGCCTGGAGACTAGGGAGTAATCCCCTTGGCGGTTAAAACGCGGGGGACAGCGCGTACGTGCGTTTAAGCGGTGCTAGAGCTGTCTACGACCAATTGAGCGGCCTCGGCACCGGGATTCTCCAGGGCGGCCGCGTATT (double strand) [15-N601-15 nucleosome 81 meCpA]”, the Kd in series [1] (apparent, H1.0 1-97 prebound, competitor DNA, linker meCpA 81 bp from dyad) amounted to 382 nM; in series [1] (apparent, H1.0 25-97 prebound, competitor DNA, linker meCpA 81 bp from dyad), 295 nM. Consider “CGGTACCTCGCGAATGCATCTAATGGAACACATTGCACAGGATGTATATATCTGACACGTGCCTGGAGACTAGGGAGTAATCCCCTTGGCGGTTAAAACGCGGGGGACAGAACGCCGGTGCGTTTAAGCGGTGCTAGAGCTGTCTACGACCAATTGAGCGGCCTGCGCACAGGGATTCTCCAGGGCGGCCGCGTATTGGATCCCGAGCC (double strand) [37-N601(mod)-27 nucleosome unmethylated]”, for which the Kd in series [1] is 82.1 nM.
